Where no end group is shown, it is not given here. [ ]: non-standard residue; d: D form. Aib = CC(C)(N)C(=O)O
B1: Compound A33 (peptide)
peptide: YSHGTFTSDHSKWLD[Aib]KRAQEFV[Aib]WLEDEPSSGAPPPS-OH
modifications: N-terminus assumed
SMILES: CC(C)C[C@H](NC(=O)[C@H](Cc1c[nH]c2ccccc12)NC(=O)[C@H](CCCCN)NC(=O)[C@H](CO)NC(=O)[C@H](Cc1c[nH]cn1)NC(=O)[C@H](CC(=O)O)NC(=O)[C@H](CO)NC(=O)[C@@H](NC(=O)[C@H](Cc1ccccc1)NC(=O)[C@@H](NC(=O)CNC(=O)[C@H](Cc1c[nH]cn1)NC(=O)[C@H](CO)NC(=O)[C@@H](N)Cc1ccc(O)cc1)[C@@H](C)O)[C@@H](C)O)C(=O)N[C@@H](CC(=O)O)C(=O)NC(C)(C)C(=O)N[C@@H](CCCCN)C(=O)N[C@@H](CCCNC(=N)N)C(=O)N[C@@H](C)C(=O)N[C@@H](CCC(N)=O)C(=O)N[C@@H](CCC(=O)O)C(=O)N[C@@H](Cc1ccccc1)C(=O)N[C@H](C(=O)NC(C)(C)C(=O)N[C@@H](Cc1c[nH]c2ccccc12)C(=O)N[C@@H](CC(C)C)C(=O)N[C@@H](CCC(=O)O)C(=O)N[C@@H](CC(=O)O)C(=O)N[C@@H](CCC(=O)O)C(=O)N1CCC[C@H]1C(=O)N[C@@H](CO)C(=O)N[C@@H](CO)C(=O)NCC(=O)N[C@@H](C)C(=O)N1CCC[C@H]1C(=O)N1CCC[C@H]1C(=O)N1CCC[C@H]1C(=O)N[C@@H](CO)C(=O)O)C(C)C
B2: Compound A32 (peptide)
peptide: YTHGTFTSDYSKWLD[Aib]KRAQEFV[Aib]WLEDEPSSGAPPPS-OH
modifications: N-terminus assumed
SMILES: CC(C)C[C@H](NC(=O)[C@H](Cc1c[nH]c2ccccc12)NC(=O)[C@H](CCCCN)NC(=O)[C@H](CO)NC(=O)[C@H](Cc1ccc(O)cc1)NC(=O)[C@H](CC(=O)O)NC(=O)[C@H](CO)NC(=O)[C@@H](NC(=O)[C@H](Cc1ccccc1)NC(=O)[C@@H](NC(=O)CNC(=O)[C@H](Cc1c[nH]cn1)NC(=O)[C@@H](NC(=O)[C@@H](N)Cc1ccc(O)cc1)[C@@H](C)O)[C@@H](C)O)[C@@H](C)O)C(=O)N[C@@H](CC(=O)O)C(=O)NC(C)(C)C(=O)N[C@@H](CCCCN)C(=O)N[C@@H](CCCNC(=N)N)C(=O)N[C@@H](C)C(=O)N[C@@H](CCC(N)=O)C(=O)N[C@@H](CCC(=O)O)C(=O)N[C@@H](Cc1ccccc1)C(=O)N[C@H](C(=O)NC(C)(C)C(=O)N[C@@H](Cc1c[nH]c2ccccc12)C(=O)N[C@@H](CC(C)C)C(=O)N[C@@H](CCC(=O)O)C(=O)N[C@@H](CC(=O)O)C(=O)N[C@@H](CCC(=O)O)C(=O)N1CCC[C@H]1C(=O)N[C@@H](CO)C(=O)N[C@@H](CO)C(=O)NCC(=O)N[C@@H](C)C(=O)N1CCC[C@H]1C(=O)N1CCC[C@H]1C(=O)N1CCC[C@H]1C(=O)N[C@@H](CO)C(=O)O)C(C)C
B3: Compound A36 (peptide)
peptide: YSHGTFTSDHSKWLD[Aib]ARAQEFV[Aib]WLEDEPSSGAPPPS-OH
modifications: N-terminus assumed
SMILES: CC(C)C[C@H](NC(=O)[C@H](Cc1c[nH]c2ccccc12)NC(=O)[C@H](CCCCN)NC(=O)[C@H](CO)NC(=O)[C@H](Cc1c[nH]cn1)NC(=O)[C@H](CC(=O)O)NC(=O)[C@H](CO)NC(=O)[C@@H](NC(=O)[C@H](Cc1ccccc1)NC(=O)[C@@H](NC(=O)CNC(=O)[C@H](Cc1c[nH]cn1)NC(=O)[C@H](CO)NC(=O)[C@@H](N)Cc1ccc(O)cc1)[C@@H](C)O)[C@@H](C)O)C(=O)N[C@@H](CC(=O)O)C(=O)NC(C)(C)C(=O)N[C@@H](C)C(=O)N[C@@H](CCCNC(=N)N)C(=O)N[C@@H](C)C(=O)N[C@@H](CCC(N)=O)C(=O)N[C@@H](CCC(=O)O)C(=O)N[C@@H](Cc1ccccc1)C(=O)N[C@H](C(=O)NC(C)(C)C(=O)N[C@@H](Cc1c[nH]c2ccccc12)C(=O)N[C@@H](CC(C)C)C(=O)N[C@@H](CCC(=O)O)C(=O)N[C@@H](CC(=O)O)C(=O)N[C@@H](CCC(=O)O)C(=O)N1CCC[C@H]1C(=O)N[C@@H](CO)C(=O)N[C@@H](CO)C(=O)NCC(=O)N[C@@H](C)C(=O)N1CCC[C@H]1C(=O)N1CCC[C@H]1C(=O)N1CCC[C@H]1C(=O)N[C@@H](CO)C(=O)O)C(C)C
B4: Compound A35 (peptide)
peptide: YTHGTFTSDYSKWLD[Aib]ARAQEFV[Aib]WLEDEPSSGAPPPS-OH
modifications: N-terminus assumed
SMILES: CC(C)C[C@H](NC(=O)[C@H](Cc1c[nH]c2ccccc12)NC(=O)[C@H](CCCCN)NC(=O)[C@H](CO)NC(=O)[C@H](Cc1ccc(O)cc1)NC(=O)[C@H](CC(=O)O)NC(=O)[C@H](CO)NC(=O)[C@@H](NC(=O)[C@H](Cc1ccccc1)NC(=O)[C@@H](NC(=O)CNC(=O)[C@H](Cc1c[nH]cn1)NC(=O)[C@@H](NC(=O)[C@@H](N)Cc1ccc(O)cc1)[C@@H](C)O)[C@@H](C)O)[C@@H](C)O)C(=O)N[C@@H](CC(=O)O)C(=O)NC(C)(C)C(=O)N[C@@H](C)C(=O)N[C@@H](CCCNC(=N)N)C(=O)N[C@@H](C)C(=O)N[C@@H](CCC(N)=O)C(=O)N[C@@H](CCC(=O)O)C(=O)N[C@@H](Cc1ccccc1)C(=O)N[C@H](C(=O)NC(C)(C)C(=O)N[C@@H](Cc1c[nH]c2ccccc12)C(=O)N[C@@H](CC(C)C)C(=O)N[C@@H](CCC(=O)O)C(=O)N[C@@H](CC(=O)O)C(=O)N[C@@H](CCC(=O)O)C(=O)N1CCC[C@H]1C(=O)N[C@@H](CO)C(=O)N[C@@H](CO)C(=O)NCC(=O)N[C@@H](C)C(=O)N1CCC[C@H]1C(=O)N1CCC[C@H]1C(=O)N1CCC[C@H]1C(=O)N[C@@H](CO)C(=O)O)C(C)C
B5: Compound A31 (peptide)
peptide: YSHGTFTSDYSKYLD[Aib]KRAQEFV[Aib]WLEDEPESGAPPPS-OH
modifications: N-terminus assumed
SMILES: CC(C)C[C@H](NC(=O)[C@H](Cc1ccc(O)cc1)NC(=O)[C@H](CCCCN)NC(=O)[C@H](CO)NC(=O)[C@H](Cc1ccc(O)cc1)NC(=O)[C@H](CC(=O)O)NC(=O)[C@H](CO)NC(=O)[C@@H](NC(=O)[C@H](Cc1ccccc1)NC(=O)[C@@H](NC(=O)CNC(=O)[C@H](Cc1c[nH]cn1)NC(=O)[C@H](CO)NC(=O)[C@@H](N)Cc1ccc(O)cc1)[C@@H](C)O)[C@@H](C)O)C(=O)N[C@@H](CC(=O)O)C(=O)NC(C)(C)C(=O)N[C@@H](CCCCN)C(=O)N[C@@H](CCCNC(=N)N)C(=O)N[C@@H](C)C(=O)N[C@@H](CCC(N)=O)C(=O)N[C@@H](CCC(=O)O)C(=O)N[C@@H](Cc1ccccc1)C(=O)N[C@H](C(=O)NC(C)(C)C(=O)N[C@@H](Cc1c[nH]c2ccccc12)C(=O)N[C@@H](CC(C)C)C(=O)N[C@@H](CCC(=O)O)C(=O)N[C@@H](CC(=O)O)C(=O)N[C@@H](CCC(=O)O)C(=O)N1CCC[C@H]1C(=O)N[C@@H](CCC(=O)O)C(=O)N[C@@H](CO)C(=O)NCC(=O)N[C@@H](C)C(=O)N1CCC[C@H]1C(=O)N1CCC[C@H]1C(=O)N1CCC[C@H]1C(=O)N[C@@H](CO)C(=O)O)C(C)C
B6: Compound A34 (peptide)
peptide: YTHGTFTSDHSKWLD[Aib]KRAQEFV[Aib]WLEDEPSSGAPPPS-OH
modifications: N-terminus assumed
SMILES: CC(C)C[C@H](NC(=O)[C@H](Cc1c[nH]c2ccccc12)NC(=O)[C@H](CCCCN)NC(=O)[C@H](CO)NC(=O)[C@H](Cc1c[nH]cn1)NC(=O)[C@H](CC(=O)O)NC(=O)[C@H](CO)NC(=O)[C@@H](NC(=O)[C@H](Cc1ccccc1)NC(=O)[C@@H](NC(=O)CNC(=O)[C@H](Cc1c[nH]cn1)NC(=O)[C@@H](NC(=O)[C@@H](N)Cc1ccc(O)cc1)[C@@H](C)O)[C@@H](C)O)[C@@H](C)O)C(=O)N[C@@H](CC(=O)O)C(=O)NC(C)(C)C(=O)N[C@@H](CCCCN)C(=O)N[C@@H](CCCNC(=N)N)C(=O)N[C@@H](C)C(=O)N[C@@H](CCC(N)=O)C(=O)N[C@@H](CCC(=O)O)C(=O)N[C@@H](Cc1ccccc1)C(=O)N[C@H](C(=O)NC(C)(C)C(=O)N[C@@H](Cc1c[nH]c2ccccc12)C(=O)N[C@@H](CC(C)C)C(=O)N[C@@H](CCC(=O)O)C(=O)N[C@@H](CC(=O)O)C(=O)N[C@@H](CCC(=O)O)C(=O)N1CCC[C@H]1C(=O)N[C@@H](CO)C(=O)N[C@@H](CO)C(=O)NCC(=O)N[C@@H](C)C(=O)N1CCC[C@H]1C(=O)N1CCC[C@H]1C(=O)N1CCC[C@H]1C(=O)N[C@@H](CO)C(=O)O)C(C)C

Each binder was assayed against human glucagon receptor (GCGR) (human, UniProt P47871 26-477) (assay: cell-based or functional assay).

Row | Binder | hGCGR pEC50 (cAMP) [pEC50]
1 | YSHGTFTSDYSKYLDQARAQEFVKWLEDEPSSGAPPPS-OH [Compound A44] | 11.9
2 | YTHGTFTSDYSKWLDSKRAQEFVKWLEDEPSSGAPPPS-OH [Compound A42] | 9.4
3 | B1 | 10.9
4 | B2 | 12.5
5 | YSHGTFTSDYSKWLDSARAQEFVKWLEDEPSSGAPPPS-OH [Compound A38] | 13.7
6 | YTHGTFTSDHSKWLDEARAQEFVKWLEDEPSSGAPPPS-OH [Compound A41] | 9.2
7 | YSHGTFTSDHSKWLDSARAQEFVKWLEDEPSSGAPPPS-OH [Compound A40] | 10.1
8 | B3 | 10.2
9 | B4 | 13.2
10 | YSHGTFTSDYSKYLDSARAQEFVKWLEDEPSSGAPPPS-OH [Compound A37] | 13
11 | YSHGTFTSDYSKYLDKARAQEFVKWLEDEPSSGAPPPS-OH [Compound A43] | 11.8
12 | B5 | 11.7
13 | YTHGTFTSDYSKWLDSARAQEFVKWLEDEPSSGAPPPS-OH [Compound A39] | 9.4
14 | B6 | 10.3

What follows are binders tested against human GLP-1 receptor (GLP-1R) (human, UniProt P43220 24-463) (assay: cell-based or functional assay).
human GLP-1 receptor (GLP-1R), sequence (P43220 24-463): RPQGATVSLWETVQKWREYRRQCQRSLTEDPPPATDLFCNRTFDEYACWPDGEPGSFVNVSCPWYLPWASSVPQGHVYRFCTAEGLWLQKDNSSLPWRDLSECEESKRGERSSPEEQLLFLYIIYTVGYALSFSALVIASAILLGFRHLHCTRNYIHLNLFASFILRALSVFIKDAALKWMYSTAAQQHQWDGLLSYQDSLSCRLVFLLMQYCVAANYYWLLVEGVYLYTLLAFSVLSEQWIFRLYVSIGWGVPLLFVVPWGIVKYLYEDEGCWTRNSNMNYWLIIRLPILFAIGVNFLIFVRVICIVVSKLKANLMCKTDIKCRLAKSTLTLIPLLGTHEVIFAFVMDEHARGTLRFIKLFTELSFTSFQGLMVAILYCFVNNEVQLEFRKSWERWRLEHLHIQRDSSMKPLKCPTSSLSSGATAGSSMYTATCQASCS

Row | Binder | hGLP1 pEC50 (cAMP) [pEC50]
15 | YSHGTFTSDYSKYLDQARAQEFVKWLEDEPSSGAPPPS-OH [Compound A44] | < 9
16 | YTHGTFTSDYSKWLDSKRAQEFVKWLEDEPSSGAPPPS-OH [Compound A42] | < 9
17 | B1 | < 9
18 | B2 | < 9
19 | YSHGTFTSDYSKWLDSARAQEFVKWLEDEPSSGAPPPS-OH [Compound A38] | < 9
20 | YTHGTFTSDHSKWLDEARAQEFVKWLEDEPSSGAPPPS-OH [Compound A41] | < 9
21 | YSHGTFTSDHSKWLDSARAQEFVKWLEDEPSSGAPPPS-OH [Compound A40] | < 9
22 | B3 | < 9
23 | B4 | < 9
24 | YSHGTFTSDYSKYLDSARAQEFVKWLEDEPSSGAPPPS-OH [Compound A37] | < 9
25 | YSHGTFTSDYSKYLDKARAQEFVKWLEDEPSSGAPPPS-OH [Compound A43] | < 9
26 | B5 | < 9
27 | YTHGTFTSDYSKWLDSARAQEFVKWLEDEPSSGAPPPS-OH [Compound A39] | < 9
28 | B6 | < 9

Source: patent US20180009871A1 (INTARCIA THERAPEUTICS, published 2018)
